Earlier results on one substance are cited in PMC9739296.

A word on the Kd: it is the constant that tells how readily two partners part at equilibrium.

In this series the target is DR4 (Homo sapiens) (UniProt O00220).
Sequence of UniProt O00220 (O00220 24-468): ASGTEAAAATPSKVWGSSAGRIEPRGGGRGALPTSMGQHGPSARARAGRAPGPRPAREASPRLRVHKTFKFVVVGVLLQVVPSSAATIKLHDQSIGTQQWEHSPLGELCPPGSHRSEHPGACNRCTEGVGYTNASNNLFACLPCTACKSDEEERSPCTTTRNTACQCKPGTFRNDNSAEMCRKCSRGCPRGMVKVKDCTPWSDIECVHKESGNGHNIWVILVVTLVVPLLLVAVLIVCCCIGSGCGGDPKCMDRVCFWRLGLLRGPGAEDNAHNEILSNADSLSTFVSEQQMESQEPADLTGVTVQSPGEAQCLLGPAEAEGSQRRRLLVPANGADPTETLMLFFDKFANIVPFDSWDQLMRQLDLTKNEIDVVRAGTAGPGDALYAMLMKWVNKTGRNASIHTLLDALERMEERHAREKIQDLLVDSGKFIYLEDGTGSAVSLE

As for TRAIL (from UniProt P50591), the equilibrium dissociation constant (Kd) is 70 nM.
